Experimental findings from the RNAGym collection of RNA variant scans (doi:10.1093/molbev/msab373) are described below.

B1: Azoarcus group I ribozyme (parent)
chain: GUGCCUUGCGCCGGGAAACCACGCAAGGGAUGGUGUCAAAUUCGGCGAAACCUAAGCGCCCGCCCGGGCGUAUGGCAACGCCGAGCCAAGCUUCGGCGCCUGCGCCGAUGAAGGUGUAGAGACUAGACGGCACCCACCUAAGGCAAACGCUAUGGUGAAGGCAUAGUCCAGGGAGUGGCGAAAGUCACACAAACCGG

The data set covers variants of B1. Description: reverse-splicing fitness (ratio to wild type); higher = more active; in vitro selection; Mg2+ level not given. Summed up: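 An in vitro group I ribozyme library with randomized positions was T7-transcribed and gel-purified. In triplicate, 10 pmol RNA in EPPS pH 7.5 was reacted with 50 pmoles of a 30-nt RNA substrate for 1 h at 37 °C across several added MgCl2 levels (1–48 mM), then stopped with EDTA. Products were reverse transcribed from a substrate-complementary primer, PCR-amplified and sequenced (HiSeq 4000). Fitness is a variant's read proportion after selection over that before, normalised to wild type.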
A111G A120G A145C C150U C169U U176A: the reverse-splicing fitness came to 0.0353.
The figure for A111G A120G A145C C150U C169U U176G is 0.00645; for A111G A120G A145C C150U C169U U176C it is 0.0306; for A111G A120C A145G C150G C169U U176G it is 0.00458.
The figure for A111G A120C A145G C150G C169U U176C is 0.0116; for A111G A120C A145G C150G C169U U176A it is 0.00706; for A111G A120G A145G C150A C169G U176C it is 0.0371.
The figure for A111G A120G A145G C150A C169G U176A is 0.0262.
On to A111G A120G A145G C150A C169G U176G, for which the reverse-splicing fitness came out at 0.00578.
In the case of A111G A120C A145U C150A, the reverse-splicing fitness came out at 0.111.
For A111G A120C A145U C150U, the reverse-splicing fitness worked out at 0.579.
A111G A120C A145U C150G: the reverse-splicing fitness stood at 0.12.
The figure for A111G A120G A145U C150A C169U U176A is 0.0273; for A111G A120G A145U C150A C169U U176C it is 0.0198; for A111G A120G A145U C150A C169U U176G it is 0.00518.
The figure for A111G A120G A145C U176C is 0.104; for A111G A120G A145C U176G it is 0.00892.
In the case of A111G A120G A145C U176A, the reverse-splicing fitness amounted to 0.0723.
The figure for A111G A120G A145G C150A U176C is 0.0374; for A111G A120G A145G C150A U176G it is 0.00788.
Consider A111G A120G A145G C150A U176A, for which the reverse-splicing fitness amounted to 0.0225.
With A111G A120C A145U C150U C169U, the reverse-splicing fitness was determined as 0.173.
As to A111G A120C A145U C150U C169A, the reverse-splicing fitness amounted to 0.013.
In the case of A111G A120C A145U C150U C169G, the reverse-splicing fitness worked out at 0.0111.
In the case of A111G A120C C169G U176C, the reverse-splicing fitness was 0.0183.
Consider A111G A120C C169G U176G, for which the reverse-splicing fitness turned out to be 0.00351.
As for A111G A120C C169G U176A, the reverse-splicing fitness came to 0.0158.
The figure for A111G A120C C150U U176C is 0.337; for A111G A120C C150U U176G it is 0.0682.
Regarding A111G A120C C150U U176A, the reverse-splicing fitness amounted to 0.314.
With A111G A120G A145G C150G U176A, the reverse-splicing fitness came out at 0.0132.
The figure for A111G A120G A145G C150G U176G is 0.00619; for A111G A120G A145G C150G U176C it is 0.0227; for A111G A120G A145G C150U C169G it is 0.255.
Turning to A111G A120G A145G C150U C169A, the reverse-splicing fitness is 0.131.
Regarding A111G A120G A145G C150U C169U, the reverse-splicing fitness is 0.2.
Turning to A111G A120C U176G, the reverse-splicing fitness came out at 0.125.
For the variant A111G A120C U176A, the reverse-splicing fitness came out at 0.47.
The figure for A111G A120C U176C is 0.522; for A111G A120G A145U C150G C169A U176G it is 0.00435; for A111G A120G A145U C150G C169A U176C it is 0.0123.
Regarding A111G A120G A145U C150G C169A U176A, the reverse-splicing fitness amounted to 0.0101.
The figure for A111G A120C A145U C150G C169U U176A is 0.0072; for A111G A120C A145U C150G C169U U176C it is 0.0159.
With A111G A120C A145U C150G C169U U176G, the reverse-splicing fitness was 0.00422.
The figure for A111G A120G A145G C150U C169A U176G is 0.00612; for A111G A120G A145G C150U C169A U176C it is 0.0553.
In the case of A111G A120G A145G C150U C169A U176A, the reverse-splicing fitness is 0.0303.
The figure for A111G A120C C150G U176G is 0.00371; for A111G A120C C150G U176A it is 0.0119; for A111G A120C C150G U176C it is 0.036.
A111G A120C A145U C150U C169A U176A: the reverse-splicing fitness came to 0.0122.
The figure for A111G A120C A145U C150U C169A U176C is 0.00821; for A111G A120C A145U C150U C169A U176G it is 0.00393.
Regarding A111G A120C C150G C169A U176A, the reverse-splicing fitness is 0.00551.
The figure for A111G A120C C150G C169A U176G is 0.00466; for A111G A120C C150G C169A U176C it is 0.00784; for A111G A120G A145G C169U U176G it is 0.00896.
For A111G A120G A145G C169U U176A, the reverse-splicing fitness came to 0.0849.
On to A111G A120G A145G C169U U176C, for which the reverse-splicing fitness was found to be 0.0954.
A111G A120C C150A C169G U176C: the reverse-splicing fitness was 0.0196.
The figure for A111G A120C C150A C169G U176A is 0.0214.
The figure for A111G A120C C150A C169G U176G is 0.00513.
For the variant A111G A120G A145G C150G C169G, the reverse-splicing fitness was 0.0306.
Turning to A111G A120G A145G C150G C169A, the reverse-splicing fitness was 0.0213.
As to A111G A120G A145G C150G C169U, the reverse-splicing fitness was 0.0343.
The figure for A111G A120C A145U C150A C169U U176G is 0.00505; for A111G A120C A145U C150A C169U U176C it is 0.0177.
As to A111G A120C A145U C150A C169U U176A, the reverse-splicing fitness stood at 0.0204.
The figure for A111G A120G A145G C150U C169U U176G is 0.00628.
With A111G A120G A145G C150U C169U U176C, the reverse-splicing fitness came out at 0.0831.
As for A111G A120G A145G C150U C169U U176A, the reverse-splicing fitness was determined as 0.0625.
The figure for A111G A120G A145G is 0.285; for A111G A120G A145U it is 0.274.
On to A111G A120G A145C, for which the reverse-splicing fitness was 0.266.
For A111G A120C A145U C150G C169A U176G, the reverse-splicing fitness was 0.00414.
The figure for A111G A120C A145U C150G C169A U176C is 0.00745; for A111G A120C A145U C150G C169A U176A it is 0.00723.
For A111G A120G A145U C150G C169U, the reverse-splicing fitness came to 0.0301.
In the case of A111G A120G A145U C150G C169G, the reverse-splicing fitness turned out to be 0.0297.
As for A111G A120G A145U C150G C169A, the reverse-splicing fitness turned out to be 0.0193.
As to A111G A120G A145C C150G C169U U176C, the reverse-splicing fitness turned out to be 0.0162.
The figure for A111G A120G A145C C150G C169U U176A is 0.0176.
The figure for A111G A120G A145C C150G C169U U176G is 0.00502.
